For test [1], the target named is T1, DC-HIL, mouse, endogenous on APC / dendritic cells (mouse, UniProt Q99P91 23-574).
T1 sequence (looked up): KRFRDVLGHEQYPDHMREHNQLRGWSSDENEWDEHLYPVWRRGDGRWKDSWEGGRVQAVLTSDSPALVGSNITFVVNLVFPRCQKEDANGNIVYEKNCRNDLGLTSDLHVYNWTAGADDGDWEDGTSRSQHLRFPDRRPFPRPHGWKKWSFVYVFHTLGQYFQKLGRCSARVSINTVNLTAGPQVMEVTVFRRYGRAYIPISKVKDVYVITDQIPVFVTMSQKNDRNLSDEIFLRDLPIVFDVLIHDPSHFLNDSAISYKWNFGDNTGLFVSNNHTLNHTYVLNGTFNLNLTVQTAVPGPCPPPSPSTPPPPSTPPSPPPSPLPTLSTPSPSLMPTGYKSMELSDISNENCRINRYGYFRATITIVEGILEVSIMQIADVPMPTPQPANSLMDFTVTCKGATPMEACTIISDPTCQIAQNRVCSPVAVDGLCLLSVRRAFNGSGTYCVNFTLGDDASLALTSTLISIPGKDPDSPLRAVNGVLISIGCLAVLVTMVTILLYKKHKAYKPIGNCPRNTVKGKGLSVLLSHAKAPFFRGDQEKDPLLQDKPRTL
As to the kind of experiment: cell-based or functional assay.

In test [2] the target is T2, DC-HIL-Fc RAA mutant (replacement of RGD sequence with RAA) (mouse; human, UniProt Q99P91 23-502).
T2 construct: extracellular domain; Positions 65 and 66 are derived from the printed position of RGD (aa 64-66); not shown: Fc of human IgG1
T2 sequence (looked up): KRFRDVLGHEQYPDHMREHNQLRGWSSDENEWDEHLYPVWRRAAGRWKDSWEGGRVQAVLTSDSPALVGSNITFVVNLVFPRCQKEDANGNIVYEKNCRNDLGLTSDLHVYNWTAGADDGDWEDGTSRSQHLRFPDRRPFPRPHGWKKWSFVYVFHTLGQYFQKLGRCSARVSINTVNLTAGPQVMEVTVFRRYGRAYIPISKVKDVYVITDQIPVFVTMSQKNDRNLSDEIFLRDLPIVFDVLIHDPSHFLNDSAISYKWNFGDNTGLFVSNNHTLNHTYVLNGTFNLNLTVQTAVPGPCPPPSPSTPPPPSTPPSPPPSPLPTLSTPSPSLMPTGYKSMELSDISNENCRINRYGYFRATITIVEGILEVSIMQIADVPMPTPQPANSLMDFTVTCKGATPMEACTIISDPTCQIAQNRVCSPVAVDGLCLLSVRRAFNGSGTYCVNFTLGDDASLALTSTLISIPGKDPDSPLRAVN
The test can be described thus: FACS, 10 µg/mL on activated CD4+ T-cells (ligand later identified as SD-4). Here is the method: Splenic CD3⁺ T-cells (1×10⁶) were activated by immobilized anti-CD3 Ab (1 or 3 μg/mL) or concanavalin A (10 μg/mL; Sigma, St Louis, Mo.) for 3 days. Freshly isolated and activated CD3⁺ T-cells were then treated with 5 μg/mL Fc blocker (BD Pharmingen, San Diego, Calif.) on ice for 30 minutes to block Fc-binding activity of Fc receptors on T-cells and incubated with 5 μg/mL PE-anti-CD3 Ab (BD Pharmingen) and 10 μg/mL DC-HIL-Fc or control human IgG (hIgG) plus 5 μg/mL FITC-anti-human IgG (both from Jackson ImmunoResearch, West Grove, Pa.). In some experiments, activated and Fc-blocked CD3⁺ T-cells were doubly-stained with 5 μg/mL FITC-labeled anti-CD4 or anti-CD8 Ab (BD Pharmingen) and Fc proteins/PE-anti-human IgG (BD Pharmingen). The treated cells were also stained with anti-CD69 Ab or isotypic control IgG to evaluate activation levels. After staining, binding of Fc proteins to T-cells and expression of marker molecules were analyzed by fluorescence-activated cell sorting (FACS).
(In general: A flow cytometer gives signals particle by particle.)

Another test addresses T3, recombinant Fc alone (human, UniProt P01857-1 99-330 = IgG part, limits assumed).
T3 construct: domain: Fc portion
The test can be described thus: FACS on T-cells (ligand on activated T-cells later identified as SD-4).

B1: SD4-Fc (extracellular domain of SD-4 fused to the Fc portion of human IgG1) (Fc fusion, UniProt O35988 24-145, looked up, not shown: a dimerising Fc or GST)
chain: ESIRETEVIDPQDLLEGRYFSGALPDDEDAGGSDDFELSGSGDLDDTEEPRPFPEVIEPLVPLDNHIPENAQPGIRVPSEPKELEENEVIPKRAPSDVGDDMSNKVSMSSTAQGSNIFERTE
Regarding B1, in test [1], the “T-cell activation in the mixed lymphocyte reaction (3H-thymidine)” value was 2 fold.

B2: syndecan-4 (SD-4), mouse, endogenous on T-cells (receptor, UniProt O35988 24-198, looked up)
chain: ESIRETEVIDPQDLLEGRYFSGALPDDEDAGGSDDFELSGSGDLDDTEEPRPFPEVIEPLVPLDNHIPENAQPGIRVPSEPKELEENEVIPKRAPSDVGDDMSNKVSMSSTAQGSNIFERTEVLAALIVGGVVGILFAVFLILLLVYRMKKKDEGSYDLGKKPIYKKAPTNEFYA
modifications: heparin/heparan sulfate chains (binding of DC-HIL is blocked by heparin)
notes: whole, on cells
Take B2: the results for the binding result (in test [2]; with recombinant Fc alone) were “binds” and “no binding”, respectively.
